The target in experiment [1] is T1, recombinant human SFRP2 (secreted frizzled-related protein 2) with C-terminal hexahistidine tag (human, UniProt Q96HF1 25-295).
T1 sequence (looked up): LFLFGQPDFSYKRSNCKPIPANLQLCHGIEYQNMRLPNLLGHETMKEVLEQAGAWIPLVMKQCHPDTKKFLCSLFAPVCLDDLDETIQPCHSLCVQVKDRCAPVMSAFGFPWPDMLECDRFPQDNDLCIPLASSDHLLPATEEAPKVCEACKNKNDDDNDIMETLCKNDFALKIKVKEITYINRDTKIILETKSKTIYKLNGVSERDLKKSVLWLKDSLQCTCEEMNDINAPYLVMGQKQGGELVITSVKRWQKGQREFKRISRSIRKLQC
In words: ELISA. (In general: In an ELISA, binding on a coated surface is turned into a signal by an enzyme label.)

A further experiment has as its target T2, recombinant human Wnt5a (human, UniProt P41221 62-380).
T2 sequence (looked up): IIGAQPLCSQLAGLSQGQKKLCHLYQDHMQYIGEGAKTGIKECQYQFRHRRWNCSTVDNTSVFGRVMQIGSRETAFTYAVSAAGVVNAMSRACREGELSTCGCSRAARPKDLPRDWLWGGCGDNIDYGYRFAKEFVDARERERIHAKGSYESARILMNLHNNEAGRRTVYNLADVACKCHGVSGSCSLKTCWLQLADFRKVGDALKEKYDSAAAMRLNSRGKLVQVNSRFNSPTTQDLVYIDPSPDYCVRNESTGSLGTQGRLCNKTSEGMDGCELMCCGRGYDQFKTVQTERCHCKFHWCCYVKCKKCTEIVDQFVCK
Briefly: ELISA.

B1: Frizzled-5 Fc Fusion protein (Fc fusion, human, UniProt Q13467 27-238, looked up)
chain: ASKAPVCQEITVPMCRGIGYNLTHMPNQFNHDTQDEAGLEVHQFWPLVEIQCSPDLRFFLCSMYTPICLPDYHKPLPPCRSVCERAKAGCSPLMRQYGFAWPERMSCDRLPVLGRDAEVLCMDYNRSEATTAPPRPFPAKPTLPGPPGAPASGGECPAGGPFVCKCREPFVPILKESHPLYNKVRTGQVPNCAVPCYQPSFSADERTFATFW
A word on the EC50: it is the concentration giving half of the maximal effect. The term Kd denotes the concentration at which binding is half-saturated. Take B1: in experiment [1], the EC50 was found to be 205 nM and the Kd came to 103 nM. Further, in the experiment with recombinant human Wnt5a, the EC50 was determined as 216 nM and the Kd is 108 nM.
